Reference: patent US20180312557A1, “Leg1 Protein, Leg1 Gene, and Uses and Drugs thereof” (ZHEJIANG UNIVERSITY, priority 2016, published 2018)

How the values were obtained:
[1] = test system: intracellular tyrosine phosphorylation in HepG2 cells; assay: Total intracellular tyrosine phosphorylation in HepG2 cells (antibody 4G10); type: cell-based, human; details: HepG2, partially purified mLeg1 vs no addition
Method: 18.1 Partially purified mLeg1 was added to the HepG2 cell medium to culture the HepG2 cells, and then total protein was extracted.
18.2 The phosphorylation level of the total intracellular tyrosine was detected through the tyrosine phosphorylation antibody 4G10 (Millipore, 05-321).

EGFR [2] = target: T1, EGFR (Mus musculus, UniProt Q01279); assay: EGFR interacting with mLeg1 in liver after intragastric administration (co-immunoprecipitation); type: in vivo
T1 construct: from tissue; host or cells: liver of mLeg1^Δ/Δ mice
Method: (§1) 22.1 The column chromatography partially purified mLeg1 protein was intragastrically administered to the mLeg1^Δ/Δ mice at 50 ng of mLeg1 per gram of body weight of the mice.
(§2) 22.2 The mice were sacrificed at different time points (0, 10, 20, 40, 60 min) after intragastric administration and liver samples were collected, an immunoprecipitation experiment was conducted to pull down mLeg1 protein (if there is any) and its interacting protein in the liver by using mLeg1 antibodies Reference may be made to steps 21.2-21.5.

[3] = mLeg1 protein in liver of mLeg1Δ/Δ mice after intragastric administration (immunoprecipitation); type: in vivo, mouse
Method: as §1, §2

RTKs = assay: Phospho-RTK array, HepG2 cells: other RTKs; type: cell-based, human; details: HepG2, Phospho-RTK array (49 RTKs)
Method: (§3) 19.1 The screening of receptor tyrosine kinase was performed by a RTK assay kit (Proteome Profiler Human Phospho-RTK Array Kit, R&D Cat. no. ARY001B) according to the manufacturer's instruction. The kit can detect 49 of 58 RTKs in total. The operation steps are summarized as follows: mLeg1 and a control were used to treat the cells (cells were grown in a 10 cm petri dish) separately, and then 500 μl of lysis buffer17 was used to lyse the cells; the RTK screening membrane was blocked for 1 hour using Assay buffer1 and then coated with a cell lysate for binding overnight, the resultant product was washed three times with 1× Wash Buffer, 10 minutes each time, then added with Anti-Phospho-Tyrosine-HRP Detection Antibody diluted with 1× Array Buffer2 at the ratio of 1:5000 for incubation at room temperature for 2 hours; followed by washing 3 times with 1× Wash Buffer, 10 minutes each time, then applied with Chemi Reagent Mix and developed, and finally imaged in a fluorescent chemiluminescent imager (Clinx Science Instruments Cat. No. 3400) with the signals recorded.

[4] = test system: Akt phosphorylation of the HepG2 cells; assay: Akt phosphorylation of HepG2 cells incubated with salivary gland cell culture supernatant (Western blot); type: cell-based, human; details: wild type supernatant containing mLeg1
Method: 14.1 Culture of human liver cancer cells HepG2: 10% newborn calf serum (GIBCO Cat. No. 16010-159) in DMEM high-glucose culture medium was used to culture the cell line. Cells were kept in a 37° C. incubator with 5% CO2, and saturated humidity. At the time of passage, the culture solution was thoroughly removed, and the left cells was digested with 0.25% typsin (EDTA-free, Sigma Cat. No. T4549), and an appropriate amount of cells were subjected to subculture or subsequent experiments.
14.2 The adherent HepG2 cells were incubated using the culture supernatant of the primary culture of the wild-type mouse salivary gland cells and the culture supernatant of the mLeg1^Δ/Δ mice, and the cell samples were collected 20 minutes later and 10 hours later.
14.3 The content of p-Akt was detected using an Akt phosphorylation antibody by Western blot, so as to reflect Akt phosphorylation level.

EGFR [5] = target: T2, EGFR (Homo sapiens, UniProt P00533); assay: Phospho-RTK array and EGFR phosphorylation specific antibody, HepG2 cells: EGFR; type: cell-based
T2 construct: endogenous in cells; host or cells: HepG2
Method: as §3
Further, the inventors of the present disclosure detected the impact of mLeg1 on intracellular EGFR activation level by an EGFR phosphorylation specific antibody.

time at which the amount of EGFR that interacts with mLeg1 reached the maximum (EGFR [2]): 10 min | intracellular EGFR activation level (EGFR [5]; EGFR phosphorylation specific antibody): could activate the EGFR very rapidly | tyrosine phosphorylation in EGFR (EGFR [5]; HepG2, Phospho-RTK array): increases significantly | time within which EGFR is activated (EGFR [5]; in vitro experiments): ≤ 1 min | time within which the phosphorylation level of EGFR began to decrease (EGFR [5]; in vitro experiments): ≤ 3 min
B1: mLeg1 protein: mouse secretory protein (SEQ ID NO: 2) encoded by mLeg1 gene, partially purified from salivary glands by column chromatography (protein, listed as Mus musculus)
chain: MAVLASWVWVLAGCFCAAVAEVSDSSDPYPPLWEDSPEQLSDYMMEDGNYIINPWVYTDRMGMYRILLEETAMYFAKYGPENEQNLLWGLPLQFGWQYQSGRLADPTGMTDCGNELNESLCVSVDSWWADINYYLSVIPFLAAVDSGITGISPNQITILPPPKDQMRFCYNVSDCQSAVPGTMNRWRDFFQYMQLNSSDFDGLLNYLWEAHASSLDYPTSAFGDRYNFYSEKEANFEENWAIAVNYLAAARLPTTQNRTYSFQRGLPPRVLVDTDIAPFIPDFTPLQNEVLVSLKLLGDTDRNSGSLSLTLWENLMSTKLARTLFLKAFEEFLATSS
modifications: partially purified
phosphorylation level of the intracellular tyrosine [1]: far higher than that of the control group | mLeg1 in the liver ([3]; 40 minutes and 60 minutes after intragastric administration): decreased | time at which the amount of mLeg1 protein in the liver reached the maximum value ([3]; mLeg1Δ/Δ mice, 50 ng per gram of body weight, intragastric): 20 min | activity of most of the RTKs (RTKs): not influenced | time within which Akt phosphorylation is induced [4]: ≤ 20 min
